{"source": "patent US20200179430A1", "about": "“USE OF P2Y1 RECEPTOR AND ANTAGONIST THEREOF IN PREVENTION AND TREATMENT OF DEPRESSION AND/OR ANXIETY DISORDER” (SOUTHERN MEDICAL UNIVERSITY, priority 2017, published 2020)", "molecules": {"B1": {"name": "P2Y1-shRNA: P2Y1 specific-interfering shRNA packaged in adeno-associated virus type 9, U6 promoter; sequences SEQ ID NO:1 and SEQ ID NO:2 (nucleic acid)", "chain 1": "GATCCCCAGCCCTCATCTTCTACTACTTCATTCAAGAGATGAAGTAGTAGAAGATGAGGGCTGGTTTTTTAGATCTA", "chain 2": "AGCTTAGATCTAAAAAACCAGCCCTCATCTTCTACTACTTCATCTCTTGAATGAAGTAGTAGAAGATGAGGGCTGGG"}}, "key": {"P2Y1 receptor [1]": {"target": "T1, P2Y1 receptor (Mus musculus, UniProt P49650)", "T1 construct": "from tissue; host or cells: living C57BL/6J mice; brain (lateral ventricle administration, ventral tegmental area) or systemic (intraperitoneal)", "T1 sequence (P49650 whole entry)": "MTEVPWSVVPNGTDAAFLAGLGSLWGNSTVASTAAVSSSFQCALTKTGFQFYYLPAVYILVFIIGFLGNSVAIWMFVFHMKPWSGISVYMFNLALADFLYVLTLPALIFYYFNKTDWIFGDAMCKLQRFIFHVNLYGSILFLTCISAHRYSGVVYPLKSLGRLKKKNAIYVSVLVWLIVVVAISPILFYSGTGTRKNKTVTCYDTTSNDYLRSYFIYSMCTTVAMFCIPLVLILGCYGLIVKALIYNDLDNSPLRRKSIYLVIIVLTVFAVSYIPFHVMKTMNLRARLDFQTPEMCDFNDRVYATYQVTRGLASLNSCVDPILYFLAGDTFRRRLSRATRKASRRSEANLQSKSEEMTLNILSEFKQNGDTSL", "assay": "Forced swimming test (FST) in C57BL/6J mice", "type": "in vivo", "conditions": "for anti-depression like behavior (immobility time of swimming within the last 4 minutes): MRS2500 2.5 mg/kg intraperitoneally, FST 30 minutes later, 6 minutes; for immobility time of swimming: lateral ventricle administration, MRS2500 0.1 μM, MRS2179 0.2 μM, 1 μL, vs artificial cerebrospinal fluid control, FIG. 2; for immobility time during the forced swimming test: 0.5 μL shRNA adeno-associated virus at ventral tegmental area, 14 days after injection, vs control virus", "description": "Forced swimming test which was proposed by Porsolt in 1977 was applied to the rats at the earliest, and subsequently extended to the mice. The forced swimming test is used to screening for antidepressants which are found to decrease immobility time of the forced swimming mice, and such model is one of the most common-used models for screening for antidepressants at present. The test steps are as follows: experimental mice adapted in an ethology laboratory for at least 60 minutes in advance, and the following test was carried out: an individual mouse was put in a cylinder glass jar (height: 45 cm; diameter: 19 cm) with a water depth of 23 cm at water temperature of 22° C.-25° C., and was subjected to the forced swimming for 6 minutes. Accumulative immobility time within the last 4 minutes was recorded (mainly behaves as stopping struggling, floating upright, or having only small limb movements to keep the head emerge from the water) as an index of tested depression-like behavior. Effect of the antidepressant can shorten the immobility time of the experimental mice.\nExperimental animals: C57BL/6J mice, grade SPF, male, body weight of 20 to 24 g. The animals were provided by the Laboratory Animal Center of Southern Medical University (Guangzhou, China). The mice were put in the SPF grade animal feeding room for feeding in separate cages, with 3 to 4 mice in each cage. The plastic cage has a size of 300 mm×170 mm×120 mm. Room temperature: 24±1° C., light-dark cycle: 12 hours/12 hours, illumination time: 7:00 a.m. to 7:00 p.m., relative humidity: 70% to 85%. The indoor environment was kept quiet and the mice could eat and drink freely. The tests were carried out at 1:00 to 5:00 in the afternoon. Before the test, the mice entered the experimental environment in advance for adaptation and were touched by the experimental personnel for adaptation.\nIn the forced swimming test of the C57BL/6J mice, the animals were divided into 5 groups randomly with 10 mice in each group. The animals in each group were surgically implanted with a medical perfusion tube at the lateral ventricle and fed for seven days for recovery. Then, four groups of animals were subjected to the following treatment respectively: by using a microdose drug delivery system, administering the corresponding reagent: a control solution (artificial cerebrospinal fluid, 1 μL, 1 μL/min), MRS2500 (0.1 μM, 1 μL, 1 μL/min), MRS2179 (0.2 μM, 1 μL, 1 μL/min). After the injection for each group was completed, the forced swimming test was carried out 10 minutes later.\n2.5 mg/kg MRS2500 was intraperitoneally administered to the mice, and 30 minutes later, the mice were subjected to the forced swimming test for 6 minutes. Immobility time of swimming within the last 4 minutes was determined to evaluate the effect of the antidepressant.\nTest method: the animal in each group was micro-injected with 0.5 μL of interfering RNA adeno-associated virus (shRNA) at the ventral tegmental area (angle: 7°, AP: −3.2 mm, ML: 1.0 mm, DV: −4.6 mm) (0.1 μL/min, remaining the needle for 5 minutes after injection), fed for 14 days and subjected to a forced swimming test after the expression recovery of virus. Titer of the P2Y1 specific-interfering shRNA is 1×10^13 v.g/ml, 9.55E+08 copy/μL. Adeno-associated virus type 9 was used to package the virus, with the promoter being U6 and the serotype being AAV9 (packaged by Biowit Company, Shenzhen, China). Sequence information: the forward sequence is shown as SEQ ID NO:1; and the reverse sequence is shown as SEQ ID NO:2."}, "P2Y1 receptor [2]": {"target": "T1, P2Y1 receptor", "assay": "Chronic social defeat stress model, social interaction test", "type": "in vivo, mice", "conditions": "for duration at the interaction area, social interaction test: chronic social defeat stress depressed mice, 14 days after injection of shRNA virus, FIG. 9", "description": "The chronic social defeat stress model was carried out referring to the Golden method.\nThe C57BL/6J mice were randomly divided into a control group and a stress group. The C57BL/6J mouse in the stress group was daily put in a cage with a screened CD-1 mouse therein, for 10-minute body contact. As an invader, the C57BL/6J mouse behaved as escape, fear, obedience and the like after being attacked. After the contact, within the 24 hours after they were separated by a transparent and perforate partition, the C57BL/6J mouse could smell, see and hear the CD-1 mouse at the opposite side for mental stress. The C57BL/6J mice took turns daily to guarantee to be subjected to even stress. The test was continued for ten days. The CD-1 mouse in the control group was replaced by another C57BL/6J mouse, and took turns daily, but body contact was avoided. After modeling, the mice were fed in separate cages and were subjected to tube-implant surgery at the lateral ventricle. The control group and the test group were administered the corresponding reagent respectively: a control solution (artificial cerebrospinal fluid, 1 μL, 1 μL/min), MRS2500 (0.1 μM, 1 μL, 1 μL/min). After administration, depression level of the mice was tested by a social interaction test. The social interaction test was divided into two stages, 2.5 minutes for each stage. First stage (no target): the CD-1 mouse was not put in a transparent and perforate organic glass box; the C57BL/6J mice were put at the distal side, and dwell durations thereof at the interaction area and at the corner within 2.5 minutes were recorded. Second stage (target): the CD-1 mouse was put in the transparent and perforate organic glass box; the C57BL/6J mice were put at the distal side, and dwell durations thereof at the interaction area and at the corner within 2.5 minutes were recorded.\nExperimental animals: C57BL/6J mice, grade SPF, male, body weight of 20 to 24 g. The animals were provided by the Laboratory Animal Center of Southern Medical University (Guangzhou, China). […]"}, "P2Y1 receptor [3]": {"target": "T1, P2Y1 receptor", "assay": "Forced swimming test of mice modeled by chronic social defeat stress model", "type": "in vivo", "conditions": "chronic social defeat stress depressed mice, 14 days after injection of shRNA virus, FIG. 10", "description": "Forced swimming test which was proposed by Porsolt in 1977 was applied to the rats at the earliest, and subsequently extended to the mice. The forced swimming test is used to screening for antidepressants which are found to decrease immobility time of the forced swimming mice, and such model is one of the most common-used models for screening for antidepressants at present. […] Accumulative immobility time within the last 4 minutes was recorded (mainly behaves as stopping struggling, floating upright, or having only small limb movements to keep the head emerge from the water) as an index of tested depression-like behavior. […]\nThe C57BL/6J mice were randomly divided into a control group and a stress group. […] First stage (no target): the CD-1 mouse was not put in a transparent and perforate organic glass box; the C57BL/6J mice were put at the distal side, and dwell durations thereof at the interaction area and at the corner within 2.5 minutes were recorded. Second stage (target): the CD-1 mouse was put in the transparent and perforate organic glass box; the C57BL/6J mice were put at the distal side, and dwell durations thereof at the interaction area and at the corner within 2.5 minutes were recorded. […]"}, "P2Y1 receptor [4]": {"target": "T1, P2Y1 receptor", "assay": "Sucrose preference test of mice modeled by chronic social defeat stress model", "type": "in vivo", "conditions": "chronic social defeat stress depressed mice; 14 days after injection of shRNA virus; FIG. 11"}, "P2Y1 receptor [5]": {"test_system": "P2Y1 receptor", "assay": "Expression of P2Y1 receptor after intracerebral injection of interfering RNA adeno-associated virus", "type": "in vivo", "conditions": "mice injected at ventral tegmental area; vs control group mice", "description": "In order to further verify whether the P2Y1 receptor can be used as a target of anti-depression and/or anti-anxiety, and to avoid the compensatory effect that may exist in the conventional knockout mice, P2Y1 receptor specifically-interfering adeno-associated virus was prepared in the present invention to be observed whether the virus affects the depression-like behavior. The mice were intracerebrally injected with a trace amount of the P2Y1 receptor-interfering RNA adeno-associated virus at the ventral tegmental area, and then a forced swimming test was carried out. […] The inventors further used a depression model, chronic social defeat stress model to verify the effect of the P2Y1 receptor specifically-interfering adeno-associated virus. After modeling of the depression model was completed, the mice took a day off, and then were administered the P2Y1 receptor specifically-interfering adeno-associated virus, and two weeks later the mice were subjected to a behavior test. […] In the sucrose preference test, a decreased sucrose preference of the social failure depressed mice was reversed (as shown in FIG. 11). […]"}, "[6]": {"conditions": "listed as P2Y1 receptor specifically-interfering adeno-associated virus"}}, "note": "“Also recorded” adds a separate entry of the source.", "data": [{"molecule": "CNCCC(Oc1ccc(C(F)(F)F)cc1)c1ccccc1", "note": "(stereo not shown) [Fluoxetine]", "values": [{"measurement": "anti-depression like behavior (immobility time of swimming within the last 4 minutes)", "setting": "P2Y1 receptor [1]; FIG. 1", "result": "anti-depression like behavior"}]}, {"molecule": "CNc1ncnc2c1ncn2[C@H]1C[C@H](OP(=O)(O)O)[C@@H](COP(=O)(O)O)O1", "note": "[MRS2179]", "values": [{"measurement": "immobility time of swimming", "setting": "P2Y1 receptor [1]", "result": "significantly reduce the immobility time; also recorded: significantly shorten the immobility time of swimming"}]}, {"molecule": "CNc1nc(I)nc2c1ncn2[C@H]1C[C@H](OP(=O)(O)O)[C@]2(COP(=O)(O)O)C[C@H]12", "note": "[MRS2500]", "values": [{"measurement": "anti-depression like behavior (immobility time of swimming within the last 4 minutes)", "setting": "P2Y1 receptor [1]; FIG. 1, 2.5 mg/kg", "result": "shows the same anti-depression like behavior as administration of the conventional antidepressant Fluoxetine"}, {"measurement": "immobility time of swimming", "setting": "P2Y1 receptor [1]", "result": "significantly reduce the immobility time; also recorded: significantly shorten the immobility time of swimming"}, {"measurement": "dwell duration at the interaction area (depressive situation)", "setting": "P2Y1 receptor [2]; chronic social defeat stress C57BL/6J mice, single dose MRS2500 0.1 μM, 1 μL, lateral ventricle, FIG. 3", "result": "significantly improved; also recorded: can improve the dwell duration at the interaction area"}]}, {"molecule": "B1", "values": [{"measurement": "immobility time during the forced swimming test", "setting": "P2Y1 receptor [1]; FIG. 8", "result": "significantly reduced immobility time"}, {"measurement": "immobility time during the forced swimming test", "setting": "P2Y1 receptor [1]; FIG. 8, listed as P2Y1 receptor-interfering RNA", "result": "obviously decreased immobility time"}, {"measurement": "duration at the interaction area, social interaction test", "setting": "P2Y1 receptor [2]", "result": "enhance the duration at the interaction area"}, {"measurement": "duration at the interaction area, social interaction test", "setting": "P2Y1 receptor [2]; [6]", "result": "situation of the social defeat depressed mice was reversed"}, {"measurement": "immobility time, forced swimming test", "setting": "P2Y1 receptor [3]", "result": "reduce the increased immobility time"}, {"measurement": "immobility time, forced swimming test", "setting": "P2Y1 receptor [3]; [6]", "result": "returned to the level of the control group"}, {"measurement": "sucrose preference", "setting": "P2Y1 receptor [4]", "result": "enhance the decreased sucrose preference"}, {"measurement": "expression of P2Y1 receptor", "setting": "P2Y1 receptor [5]", "result": "significantly decreased the expression of P2Y1 receptor"}]}]}
